Data on one molecule can be found in US20090311267A1 (UNIVERSITY OF WURZBURG, published 2009).

Test [1] deals with T1, (1-289) recombinant (r) GPIbα fragment expressed by Chinese hamster ovary cells (human, UniProt P07359 17-305).
T1 construct: they seem to count on the mature chain, not on the precursor; Fragment obtained from Meyer et al; also called rGPIb-fragment; recombinant GPIbα fragment (His1-Val289)
Description: ELISA: inhibition of ristocetin (300 µg/ml)-induced binding of vWF to rGPIbα captured on 2D4.

Test [2] addresses human platelet glycoprotein GPIb (on human platelets) (human, UniProt P07359 17-652). Description: cell-based or functional assay.
Test [3] addresses T1, (1-289) recombinant (r) GPIbα fragment …. The experiment in a line: ELISA: inhibition of botrocetin (0.5 µg/ml)-induced binding of vWF to rGPIbα captured on 2D4.

Where “and” joins values, the source holds several entries; their conditions need not be identical. Identical values can stand only once.

B1: 6B4 Fab fragments (Fab, V domains shown)
VH: QVQLQESGPGLVAPSQSLSITCTVSGISLNRYGVHWVRQPPGKGLEWLGVIWTGGSTNYNSALMSRLSISKDNSKSQVFLKMNSLQTDDTAMYYCARDRSTMITAYAMDYWGQGTTVTVSS
VL: DIELTQSPAIMSASPGEKVTMTCSASSSVNYMHWFQQESGTFPKRRIYDTSKLASGVPARLSGSGSGTEFTLEISRVKAEDVGVYYCQQLVEYPLTFGAGTKLELK
In the case of B1, the concentration for half-maximal inhibition (IC50) in test [1] is 1.8 µg/mL and 36 nM. In test [2], the “IC50 of botrocetin-(0.5 µg/ml) induced human platelet agglutination” value was 2 µg/ml and 40 nmol/L; the “IC50 of ristocetin-(1 mg/ml) induced human platelet agglutination” value is 1.2 µg/ml and 24 nmol/L. In addition, in test [3], the IC50 was 2.5 µg/mL and 50 nM.
